Consider three molecules from patent US20040106173A1, “Bot1: target for antifungal agents” (The University of Miami, priority 2001, published 2004).

Assay [1] relates to microtubule cytoskeleton of fission yeast cells expressing Myc-Bot1. The assay can be described thus: Microtubule depolymerization and Bot1p localization by immunofluorescence in cells expressing Myc-Bot1. It is filed as cell-based, Schizosaccharomyces pombe. To be noted: cells expressing Myc-Bot1 exposed for 45 min. Here is the method:
Cells in liquid cultures were grown exponentially for at least eight generations, at densities below 10^7 cells/ml, before the start of the experiment. Immunofluorescent staining was performed as described (46). Cells were fixed in methanol and stained with the following primary antibodies: a rabbit polyclonal antibody anti-Tea1p (40, a kind gift of Dr. P. Nurse, ICRF London), a rabbit polyclonal antibody anti-Orb6p, a monoclonal anti-hemagglutinin (HA) antibody (Covance), and a chicken polyclonal anti-Myc antibody (Molecular Probes). For actin and microtubule staining, a monoclonal anti-actin antibody (Amersham Pharmacia Biotech) and a monoclonal anti-tubulin antibody (TAT1; a kind gift of Dr. K. Gull), respectively, were used A CY3-conjugated anti-mouse, a CY3-conjugated anti-rabbit, or an FITC-conjugated anti-mouse were used as secondary antibodies (Sigma). Cells were immobilized on coverslips using PBS-containing antifade (Molecular Probes) as mounting medium and photographed using a Zeiss Axiophot microscope or a Leica DMRA microscope, equipped with Metamorph 1.7.4 software (Universal Images).
Because our previous results indicated a role for Tea1p in the control of Bot1p function, the effect of microtubule depolymerization on Bot1p localization was assessed. […]

Assay [2] addresses T1, GAL4 binding domain fused to Cdc23p (pAS1-cdc23) (fission yeast, UniProt P04386 1-147; O42709 1-593).
T1 construct: Two-hybrid control bait
Nature of the assay: yeast two-hybrid (HIS3 and LACZ reporters). From the text:
(§1) The tea1 gene was fused to the DNA binding domain of GAL4 in a plasmid (pAS1) carrying the trp1 marker. The orb6 gene was fused to the DNA binding domain of GAL4 (pAS1-orb6) and to the GAL4 activator domain (pACT2-orb6). The cDNA library was cloned to the transcription activator domain of GAL4 in a plasmid (pACT) carrying the leu2 marker. Plasmids pAS1, pACT2, pSE1111 (pACT-SNF4), pSE1112 (pAS1-SNF1), pAS1-p53, pAS1-lamin and the S. pombe library prepared in phage λ vectors and plasmids pAS1-SNF1 and pAS1-lamin, both harbored in Y187 strain, were kindly provided by Dr. S. Elledge. The test for cell growth on medium lacking histidine, the beta-galactosidase activation assay and the mating test to detect interaction specificity were performed as described (14). After screening 2×10⁶ transformants, we found five proteins that interact with Orb6p and four that interact with Tea1p in this system, and that were identified multiple times in the screen. Clones containing bot1+ were isolated 22 times in the Orb6p screen and eight times in the Tea1p screen. All clones contained the full-length bot1 sequence, although they usually lacked the initial ATG codon. For beta-galactosidase activation, three independent transformants were assayed for each condition.
(§2) To identify novel components of the Orb6p pathway, a two-hybrid screen was performed to identify cDNAs encoding proteins that interact with Orb6p. One of these, isolated 22 times in this screen, was a novel protein that we named Bot1p. […] The specificity of the positive interaction between Orb6p and Bot1p in the two-hybrid system was controlled by cotransformation of pAS1-orb6 and pACT-bot1 independently with a number of control plasmids. Co-expression of SNF1p or SNF4p was used as positive controls. Orb6p was unable to support the activation of the LACZ-GAL4 and HIS3-GAL4 promoters when co-expressed with GAL4 activation domain fused to SNF4p, or with the GAL4 activation domain (GAD) alone. Bot1p was unable to support the activation of the LACZ-GAL4 and HIS3-GAL4 promoters when co-expressed with the GAL4 binding domain fused to p53, Cdc23p, GAL4 DNA binding domain (GBD) alone, or fused to SNF1p or Cdt1p.

In assay [3] the target is GAL4 binding domain fused to SNF1p (pSE1112, pAS1-SNF1) (UniProt P04386 1-147; P06782 1-633). Nature of the assay: yeast two-hybrid (HIS3 and LACZ reporters).
Description: as §1, §2

Assay [4] concerns the target T2, GAL4 binding domain fused to Cdt1p (pAS1-cdt1) (fission yeast, UniProt P04386 1-147; P40382 1-422, limits assumed).
T2 construct: Two-hybrid control bait
Nature of the assay: two-hybrid library screens with other baits; dot blotting of the isolated pACT plasmids.

The target in assay [5] is T3, GST-tagged Tea1p (pESP-GSTtea1+) (Schizosaccharomyces pombe, UniProt P87061 1-1147).
T3 construct: also called GST-Tea1p
T3 sequence (looked up): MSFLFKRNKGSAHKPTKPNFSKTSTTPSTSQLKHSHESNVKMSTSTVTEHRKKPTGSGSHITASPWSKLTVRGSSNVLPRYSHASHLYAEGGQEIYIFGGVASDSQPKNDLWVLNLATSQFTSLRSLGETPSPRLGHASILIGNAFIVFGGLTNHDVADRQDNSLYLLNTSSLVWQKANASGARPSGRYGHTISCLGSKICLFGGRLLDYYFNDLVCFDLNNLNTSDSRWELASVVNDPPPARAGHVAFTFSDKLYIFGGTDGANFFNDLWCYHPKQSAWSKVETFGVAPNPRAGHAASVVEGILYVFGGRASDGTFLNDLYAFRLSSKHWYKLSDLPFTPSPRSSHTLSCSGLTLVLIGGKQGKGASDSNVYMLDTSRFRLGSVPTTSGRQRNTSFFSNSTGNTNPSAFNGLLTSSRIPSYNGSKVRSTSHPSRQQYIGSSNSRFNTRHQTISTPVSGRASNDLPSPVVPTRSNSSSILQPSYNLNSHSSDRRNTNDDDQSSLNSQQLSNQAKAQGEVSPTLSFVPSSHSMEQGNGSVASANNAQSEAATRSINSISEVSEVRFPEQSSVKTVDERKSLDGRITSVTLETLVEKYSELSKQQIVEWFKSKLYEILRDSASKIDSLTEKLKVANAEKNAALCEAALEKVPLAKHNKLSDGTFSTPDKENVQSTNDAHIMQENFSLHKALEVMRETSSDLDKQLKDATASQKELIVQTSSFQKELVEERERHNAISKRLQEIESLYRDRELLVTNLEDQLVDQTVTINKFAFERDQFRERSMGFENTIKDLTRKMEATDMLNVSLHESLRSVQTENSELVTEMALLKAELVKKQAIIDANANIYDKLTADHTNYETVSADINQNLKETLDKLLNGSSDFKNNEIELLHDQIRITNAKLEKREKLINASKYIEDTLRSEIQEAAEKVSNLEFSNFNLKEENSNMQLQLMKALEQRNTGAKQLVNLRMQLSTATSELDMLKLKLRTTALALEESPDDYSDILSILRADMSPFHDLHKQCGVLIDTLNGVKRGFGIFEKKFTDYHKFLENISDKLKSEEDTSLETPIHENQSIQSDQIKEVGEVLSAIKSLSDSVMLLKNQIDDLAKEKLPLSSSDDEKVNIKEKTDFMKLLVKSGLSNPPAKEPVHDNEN
The assay can be described thus: glutathione beads carrying GST-Tea1p incubated with a fission yeast extract containing HA-Cdc23p. On the procedure: Cell extracts were prepared as described. GST-Tea1p and GST were purified using glutathione beads (Molecular Probes). Beads were spun, and further incubated for 4 hr with an extract containing HA-Bot1p or a control extract containing HA-Cdc23p.
Glutathione beads were washed three times in HB buffer and then eluted. The eluate was run on a 10% polyacrylamide gel, blotted on nitrocellulose, and probed with a primary anti-HA antibody (Covance) or, separately, with a primary anti-GST antibody (Molecular Probes) and with a horseradish peroxidase-conjugated secondary antibody (ECL, Amersham).
To confirm this interaction between Tea1p and Bot1p in fission yeast extracts, GST-Tea1p and HA-Bot1p were co-expressed in fission yeast cells, and GST-Tea1p was purified using glutathione-coupled resin. The beads were further incubated with an extract containing HA-Bot1p or HA-Cdc23p as a control.

As for `COC(=O)Nc1nc2ccccc2[nH]1` [MBC, methyl-benzidazole-carbamate], the “effect on microtubule cytoskeleton” value in assay [1] (DMSO control) is listed as “virtually complete microtubule depolymerization”. For the same molecule, the Bot1p localization result in assay [1] (DMSO control showed normal Bot1p localization at the cell tips) is “more spread out and less restricted to the cell tips”.

B1: Bot1p fused to the GAL4 activation domain (pACT-bot1) (other, not shown: large carriers)
chain: MRNSVEFSQLGLKTAFNLSQNKTYTSAVKKQFFSTGAFLSNGGNIDLNKHTQKNIDSKYVACNSRSVTPPNDVASSVSKNTLRHKQRLMMAQWLMSPEVQKAKSSSSGNVGLGPNTNQPFPLNPFFKPPRPISHSLRMKITDEYLQGASIEVLARKFNTSPQRIEALIKLRRINDEFEEKKKPILHSYNEVMEKMLNACTKPEMMQFNDGNDIPLRSNPVSLWKSLPEGETFTPQEAAKILKWPSIEELNMRQNATHFHKTSDEHKDLNEDEELISSSPSEVGKRVFRLIDLSTGNVYRRDTGGDIYVKRKKSTT
notes: also called bot1+ clones
As to B1, the binding result in assay [2], in assay [3] and in assay [4] was “no binding” each time.

B2: HA-tagged Cdc23p (pRep41-HA3cdc23) (other, fission yeast, UniProt O42709 1-593, looked up, not shown: small tags and cut ends)
chain: MHDPFIAEENDLDLEEKRLQRQLNEIQEKKRLRSAQKEASSENAEVIQVPRSPPQQVRVLTVSSPSKLKSPKRLILGIDKGKTGKDVSLGKGPRGPLPKPFHERLAEARNQERKRSDKLKTMKKNRKQSFQRKRNILEDGKSEEEKFPMKCDEIDPYSRQAIVIRYISDEVAKENIGGNQVYLIHQLLKLVRAPKFEAPEVDNYVVMGIVASNSGTRETVNGNKYCMLTLTDLKWQLECFLFGKAFERYWKIQSGTVIALLNPEVLKPKNPDIGRFSLKLDSEYDVLLEIGRSKHLGYCSSRRKSGELCKHWLDKRAGDVCEYHVDLAVQRSMSTRTEFASSMATMHEPRARREKRFRGQGFQGYFAGEKYSAIPNAVAGLYDAEDAVQTERERKERYKKQRAQAEREREILVRLSKRCCASSSSSSNSNNLSTGMSMRTLGHQYLNLQGSGVKNLHDKGNPTALSKDSEIDSSTKKPSVLASFNASIMNPKSSLPSFSNSAILGTNDAASGTPVPQDTTSTKVSPAVVFTSSPRIFSPQSLRKIGFDPTHSADASTTHSTATGLSRSGSLKNIKFRYEFTESDDEDDLEIVP
notes: also called HA-Cdc23p; HA-Cdc23
For B2, the binding result in assay [5] was “no binding”.
